Reference: PMC10885436, “A novel AA14 LPMO from Talaromyces rugulosus with bifunctional cellulolytic/hemicellulolytic activity boosted cellulose hydrolysis” (Biotechnology for Biofuels and Bioproducts, 2024)

Substrate: COc1cccc(OC)c1O
Experiment: purified protein
Type: biochemical, Talaromyces rugulosus
Settings: co-substrate H2O2 fixed at 100 uM (below its Km, authors call kinetics insufficient), Cu(II)-saturated enzyme, 100 mM sodium phosphate pH 7.0, 37 C

B1: TrAA14A (Talaromyces rugulosus) (protein)
chain: HVVAWHPGMYCLGGNDTSVDDPNTNLAVNPLWDLPKSKWWFQADRGCDKAPPVDGVFLELPAGQNFTTELAHNRAQTTLSFNGQYAGEWPDGKDHPEDWSGTGTPPGCIQDDGAIHTNNQTMAGGTVFAISYQSDMSQVTMENLVVFSVLEHTPWKRIATYEVPADLPPCPDAGCICAWGWVPQGCGEPNMYMAGYKCKVTGSSSTKQLAQAQVPKYCANDTSECVGGAKQILVMNQADGNNVVAPDNDFVAYNEKWGFQNGAQNDIFM
notes: about 60 kDa glycosylated, about 30 kDa after Endo H; no dCTR
  Km: 790 µM
  kcat: 1.32 s⁻¹
